From IntAct's records for PubMed 19864458

B1: EH domain-containing protein 1 (Homo sapiens), Q9H4M9 (parent)
chain: MFSWVSKDARRKKEPELFQTVAEGLRQLYAQKLLPLEEHYRFHEFHSPALEDADFDNKPMVLLVGQYSTGKTTFIRHLIEQDFPGMRIGPEPTTDSFIAVMHGPTEGVVPGNALVVDPRRPFRKLNAFGNAFLNRFMCAQLPNPVLDSISIIDTPGILSGEKQRISRGYDFAAVLEWFAERVDRIILLFDAHKLDISDEFSEVIKALKNHEDKIRVVLNKADQIETQQLMRVYGALMWSLGKIINTPEVVRVYIGSFWSHPLLIPDNRKLFEAEEQDLFKDIQSLPRNAALRKLNDLIKRARLAKVHAYIISSLKKEMPNVFGKESKKKELVNNLGEIYQKIEREHQISPGDFPSLRKMQELLQTQDFSKFQALKPKLLDTVDDMLANDIARLMVMVRQEESLMPSQVVKGGAFDGTMNGPFGHGYGEGAGEGIDDVEWVVGKDKPTYDEIFYTLSPVNGKITGANAKKEMVKSKLPNTVLGKIWKLADVDKDGLLDDEEFALANHLIKVKLEGHELPADLPPHLVPPSKRRHE
B2: MICAL-like protein 1 (Homo sapiens), Q8N3F8 (parent)
chain: MAGPRGALLAWCRRQCEGYRGVEIRDLSSSFRDGLAFCAILHRHRPDLLDFDSLSKDNVFENNRLAFEVAEKELGIPALLDPNDMVSMSVPDCLSIMTYVSQYYNHFCSPGQAGVSPPRKGLAPCSPPSVAPTPVEPEDVAQGEELSSGSLSEQGTGQTPSSTCAACQQHVHLVQRYLADGRLYHRHCFRCRRCSSTLLPGAYENGPEEGTFVCAEHCARLGPGTRSGTRPGPFSQPKQQHQQQLAEDAKDVPGGGPSSSAPAGAEADGPKASPEARPQIPTKPRVPGKLQELASPPAGRPTPAPRKASESTTPAPPTPRPRSSLQQENLVEQAGSSSLVNGRLHELPVPKPRGTPKPSEGTPAPRKDPPWITLVQAEPKKKPAPLPPSSSPGPPSQDSRQVENGGTEEVAQPSPTASLESKPYNPFEEEEEDKEEEAPAAPSLATSPALGHPESTPKSLHPWYGITPTSSPKTKKRPAPRAPSASPLALHASRLSHSEPPSATPSPALSVESLSSESASQTAGAELLEPPAVPKSSSEPAVHAPGTPGNPVSLSTNSSLASSGELVEPRVEQMPQASPGLAPRTRGSSGPQPAKPCSGATPTPLLLVGDRSPVPSPGSSSPQLQVKSSCKENPFNRKPSPAASPATKKATKGSKPVRPPAPGHGFPLIKRKVQADQYIPEEDIHGEMDTIERRLDALEHRGVLLEEKLRGGLNEGREDDMLVDWFKLIHEKHLLVRRESELIYVFKQQNLEQRQADVEYELRCLLNKPEKDWTEEDRAREKVLMQELVTLIEQRNAIINCLDEDRQREEEEDKMLEAMIKKKEFQREAEPEGKKKGKFKTMKMLKLLGNKRDAKSKSPRDKS
partner: B1 chain

Variants of: B1
Conditions: with milk1_human MICALL1, Q8N3F8

Variant | effect of a mutation on the interaction
K483E | with no effect

Variants of: B2
Conditions: with ehd1_human EHD1, Q9H4M9

Variant | effect of a mutation on the interaction
N425A;F427A | disrupting interaction

Variants of: B2
Conditions: with ehd1_human EHD1, Q9H4M9
Remark: another data set of the same source

Variant | effect of a mutation on the interaction
N425A;F427A | decreasing interaction
